The data set in a line: self-splicing fitness, log relative to wild type (ln ratio); higher = more splicing; Tetrahymena group I intron in knt gene, E. coli kanamycin selection, DiMSum; sequences stand for … in CUCUCU…GGAGGGAAAAGUUAUCAGGCAUGCACCUGGUAGCUAGUCUUUAAACCAAUAGAUUGCAUCGGUUUAAAAGGCAAGACCGUCAAAUUGCGGGAAAGGGGUCAACAGCCGUUCAGUACCAAGUCUCAGGGGAAACUUUGAGAUGGCCUUGCAAAGGGUAUGGUAAUAAGCUGACGGACAUGGUCCUAACCACGCAGCCAAGUCCUAAGUCAACAGAUCUUCUGUUGAUAUGGAUGCAGUUCACAGACUAAAUGUCGGUCGGGGAAGAUGUAUUCUUCUCAUAAGAUAUAGUCGGACCUCUCCUUAAUGGGAGCUAGCGGAUGAAGUGAUGCAACACUGGAGCCGCUGGGAACUAAUUUGUAUGCGAAAGUAUAUUGAUUAGUUUUGGAGUACUCGUGGUCG
A digest of the protocol: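 DiMSum derived fitness as the error-weighted combination of fold changes across replicates, kanamycin versus no kanamycin, normalised to wild type. E. coli BL21(DE3) held the library, which randomised all eight P1ex-region intron nucleotides within the knt kanamycin-resistance gene on pET-22b(+). Six replicate transformations grew overnight at 37°C or 30°C on LB agar with or without 25 μg/mL kanamycin, also containing 100 μg/mL carbenicillin, 50 μM IPTG and 0.2% rhamnose, and pooled colonies were amplicon-sequenced on an Illumina HiSeq 2500.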

± gives the uncertainty stated by the source.

For the sequence ACUAAGCAAUAUUACGCCAG, the “self-splicing fitness (ln)” value is, setting by setting: (30 °C) -0.955 ± 0.14; (37 °C) -0.843 ± 0.2.
For GCUCAGCAAUAUUACGGUUA, the “self-splicing fitness (ln)” value is -0.772 ± 0.12 (30 °C) and -0.237 ± 0.11 (37 °C).
As to GAUCAGCAAUAUUACGAAUG, the “self-splicing fitness (ln)” value (30 °C) was -1.15 ± 0.075 and the “self-splicing fitness (ln)” value (37 °C) is -0.0569 ± 0.11.
On to UCGUAGCAAUAUUACGGUCU, for which the “self-splicing fitness (ln)” value runs as follows: (30 °C) -2.83 ± 0.18; (37 °C) -1.67 ± 0.16.
AACCAGCAAUAUUACGACAC: the “self-splicing fitness (ln)” value reads like this: (30 °C) -1.07 ± 0.08; (37 °C) -0.426 ± 0.1.
Take UUCUAGCAAUAUUACGAGAU: the “self-splicing fitness (ln)” value is, setting by setting: (30 °C) -3.95 ± 0.33; (37 °C) -2.67 ± 0.34.
UGGGAGCAAUAUUACGGGCG: the “self-splicing fitness (ln)” value (30 °C) is -2.4 ± 0.27 and the “self-splicing fitness (ln)” value (37 °C) is -0.751 ± 0.26.
Take CAAAAGCAAUAUUACGGAGU: the “self-splicing fitness (ln)” value (30 °C) was -3.64 ± 0.14 and the “self-splicing fitness (ln)” value (37 °C) was -2.56 ± 0.16.
As for AGAGAGCAAUAUUACGAUAG, the “self-splicing fitness (ln)” value (37 °C) is -0.994 ± 0.49.
For GUCCAGCAAUAUUACGGAAU, the “self-splicing fitness (ln)” value reads like this: (30 °C) -0.712 ± 0.079; (37 °C) 0.0755 ± 0.094.
For AGCCAGCAAUAUUACGCCCA, the “self-splicing fitness (ln)” value reads like this: (30 °C) -1.93 ± 0.2; (37 °C) -1.72 ± 0.25.
Turning to CACGAGCAAUAUUACGUAGA, the “self-splicing fitness (ln)” value was -2.34 ± 0.095 (30 °C) and -3.42 ± 0.29 (37 °C).
The matching figures for CGAUAGCAAUAUUACGAUUG: -2.27 ± 0.12 and -1.2 ± 0.12.
The matching figures for UCUUAGCAAUAUUACGUGUG: -2.13 ± 0.13 and -0.484 ± 0.099.
As for CCAAAGCAAUAUUACGUGAG, the “self-splicing fitness (ln)” value was -0.357 ± 0.049 (30 °C) and 0.0847 ± 0.073 (37 °C).
Turning to CGUAAGCAAUAUUACGUAGA, the “self-splicing fitness (ln)” value is, setting by setting: (30 °C) -4.43 ± 0.3; (37 °C) -3.25 ± 0.29.
AAUGAGCAAUAUUACGGGCC: the “self-splicing fitness (ln)” value (37 °C) is -1.76 ± 0.39.
Consider UUCAAGCAAUAUUACGAUCC, for which the “self-splicing fitness (ln)” value is, setting by setting: (30 °C) -2.66 ± 0.27; (37 °C) -1.55 ± 0.29.
As for ACCCAGCAAUAUUACGAAUC, the “self-splicing fitness (ln)” value runs as follows: (30 °C) -2.13 ± 0.12; (37 °C) -1.45 ± 0.16.
For the sequence GAGUAGCAAUAUUACGAGUC, the “self-splicing fitness (ln)” value reads like this: (30 °C) -3.59 ± 0.34; (37 °C) -1.48 ± 0.27.
Turning to GCCUAGCAAUAUUACGCGAG, the “self-splicing fitness (ln)” value is -2.33 ± 0.21 (30 °C) and -2.29 ± 0.16 (37 °C).
For the sequence GCCCAGCAAUAUUACGUGCU, the “self-splicing fitness (ln)” value reads like this: (30 °C) -3.14 ± 0.16; (37 °C) -2.88 ± 0.21.
As to GAACAGCAAUAUUACGUCUG, the “self-splicing fitness (ln)” value is -2.54 ± 0.079 (30 °C) and -0.775 ± 0.077 (37 °C).
Turning to UCUAAGCAAUAUUACGGGGU, the “self-splicing fitness (ln)” value (30 °C) was -2.9 ± 0.26 and the “self-splicing fitness (ln)” value (37 °C) is -2.45 ± 0.21.
Regarding AAAUAGCAAUAUUACGAUAC, the “self-splicing fitness (ln)” value is, setting by setting: (30 °C) -2.95 ± 0.22; (37 °C) -2.64 ± 0.36.
With AGCUAGCAAUAUUACGUUCA, the “self-splicing fitness (ln)” value runs as follows: (30 °C) -1.59 ± 0.12; (37 °C) -0.979 ± 0.15.
With CACAAGCAAUAUUACGAAAG, the “self-splicing fitness (ln)” value by setting is: (30 °C) -0.721 ± 0.08; (37 °C) 0.0107 ± 0.1.
In the case of UUUGAGCAAUAUUACGCAGA, the “self-splicing fitness (ln)” value (37 °C) was -1.51 ± 0.32.
For UCGUAGCAAUAUUACGCUGU, the “self-splicing fitness (ln)” value (37 °C) is -1.67 ± 0.28.
For the sequence CUCCAGCAAUAUUACGUCUU, the “self-splicing fitness (ln)” value is, setting by setting: (30 °C) -4.45 ± 0.28; (37 °C) -2.88 ± 0.16.
On to CUCGAGCAAUAUUACGUGAC, for which the “self-splicing fitness (ln)” value is, setting by setting: (30 °C) -2.55 ± 0.17; (37 °C) -1.73 ± 0.16.
Take UCACAGCAAUAUUACGGUCA: the “self-splicing fitness (ln)” value was -0.0483 ± 0.085 (30 °C) and 0.318 ± 0.099 (37 °C).
Take CAUAAGCAAUAUUACGUAGA: the “self-splicing fitness (ln)” value (30 °C) was -3.68 ± 0.13 and the “self-splicing fitness (ln)” value (37 °C) was -1.97 ± 0.12.
The like results for CCAUAGCAAUAUUACGAAGU were, in that order, -3.61 ± 0.21 and -2.64 ± 0.22.
For the sequence UCGCAGCAAUAUUACGUCGG, the “self-splicing fitness (ln)” value reads like this: (30 °C) -2.74 ± 0.18; (37 °C) -1.79 ± 0.19.
Turning to UUGGAGCAAUAUUACGACUU, the “self-splicing fitness (ln)” value (30 °C) is -1.94 ± 0.19 and the “self-splicing fitness (ln)” value (37 °C) was -0.866 ± 0.28.
Take GUGUAGCAAUAUUACGCCUU: the “self-splicing fitness (ln)” value is, setting by setting: (30 °C) -2.63 ± 0.39; (37 °C) -2.56 ± 0.37.
For UGCGAGCAAUAUUACGUCUA, the “self-splicing fitness (ln)” value runs as follows: (30 °C) -0.974 ± 0.15; (37 °C) -0.453 ± 0.17.
Take AAGAAGCAAUAUUACGUAAU: the “self-splicing fitness (ln)” value (30 °C) is -1.89 ± 0.097 and the “self-splicing fitness (ln)” value (37 °C) was -1.2 ± 0.12.
The matching figures for CAUGAGCAAUAUUACGCUCU: -3.71 ± 0.49 and -2.82 ± 0.31.
Regarding UCCCAGCAAUAUUACGGAUG, the “self-splicing fitness (ln)” value by setting is: (30 °C) -3.49 ± 0.2; (37 °C) -1.31 ± 0.15.
Consider CCUGAGCAAUAUUACGAGUA, for which the “self-splicing fitness (ln)” value is -2.98 ± 0.21 (30 °C) and -3.03 ± 0.43 (37 °C).
For the sequence GCGCAGCAAUAUUACGGAUA, the “self-splicing fitness (ln)” value is, setting by setting: (30 °C) -1.98 ± 0.16; (37 °C) -0.989 ± 0.13.
For AGGUAGCAAUAUUACGGGGC, the “self-splicing fitness (ln)” value reads like this: (30 °C) -3.748 ± 0.033; (37 °C) -2.96 ± 0.043.
For the sequence GGUGAGCAAUAUUACGUUCA, the “self-splicing fitness (ln)” value (37 °C) is -1.92 ± 0.47.
Consider ACCAAGCAAUAUUACGUGUG, for which the “self-splicing fitness (ln)” value runs as follows: (30 °C) -2.06 ± 0.048; (37 °C) -1.1 ± 0.064.
On to CCACAGCAAUAUUACGUGCG, for which the “self-splicing fitness (ln)” value is -2.79 ± 0.11 (30 °C) and -1.72 ± 0.12 (37 °C).
Consider CGCAAGCAAUAUUACGGUGG, for which the “self-splicing fitness (ln)” value (30 °C) is -0.599 ± 0.064 and the “self-splicing fitness (ln)” value (37 °C) is -0.2 ± 0.079.
The matching figures for UACCAGCAAUAUUACGUACA: -0.719 ± 0.071 and -0.432 ± 0.1.
For CGUUAGCAAUAUUACGAUAA, the “self-splicing fitness (ln)” value by setting is: (30 °C) -2.9 ± 0.26; (37 °C) -1.52 ± 0.22.
As to CGUCAGCAAUAUUACGUCAG, the “self-splicing fitness (ln)” value was -0.465 ± 0.069 (30 °C) and 0.175 ± 0.083 (37 °C).
Regarding CCCUAGCAAUAUUACGACGC, the “self-splicing fitness (ln)” value reads like this: (30 °C) -3.34 ± 0.32; (37 °C) -2.53 ± 0.39.
With CCCCAGCAAUAUUACGCCUA, the “self-splicing fitness (ln)” value runs as follows: (30 °C) -2.61 ± 0.18; (37 °C) -2.89 ± 0.32.
Turning to GCCUAGCAAUAUUACGUAUU, the “self-splicing fitness (ln)” value (30 °C) is -1.83 ± 0.098 and the “self-splicing fitness (ln)” value (37 °C) is -1.73 ± 0.14.
Turning to AUCCAGCAAUAUUACGGACG, the “self-splicing fitness (ln)” value is, setting by setting: (30 °C) 0.0252 ± 0.082; (37 °C) -0.0752 ± 0.089.
The like results for UGUAAGCAAUAUUACGCUUA were, in that order, -1.79 ± 0.15 and -2.39 ± 0.19.
As to AGCAAGCAAUAUUACGUACU, the “self-splicing fitness (ln)” value was -0.47 ± 0.057 (30 °C) and -0.368 ± 0.075 (37 °C).
Take AUUAAGCAAUAUUACGGAAA: the “self-splicing fitness (ln)” value reads like this: (30 °C) -2.98 ± 0.29; (37 °C) -1.77 ± 0.26.
Turning to GGCUAGCAAUAUUACGACAA, the “self-splicing fitness (ln)” value (30 °C) was -0.713 ± 0.29 and the “self-splicing fitness (ln)” value (37 °C) was -0.198 ± 0.33.
For CAGCAGCAAUAUUACGCCGU, the “self-splicing fitness (ln)” value (30 °C) was -2.74 ± 0.22 and the “self-splicing fitness (ln)” value (37 °C) was -2.41 ± 0.28.
For UCAUAGCAAUAUUACGCCGG, the “self-splicing fitness (ln)” value was -1.25 ± 0.12 (30 °C) and -0.72 ± 0.12 (37 °C).

Source of the values: the supplement of paper PMC7877785.
